Data on 64 variants can be found in the RNAGym collection of RNA variant scans (doi:10.7554/elife.80360).

Sequences and labels used below:
B1: HDV Ribozyme (parent)
chain: GGCCGGCAUGGUCCCAGCCUCCUCGCUGGCGCCGGCUGGGCAACAUUCCGAGGGGACCGUCCCCUCGGUAAUGGCGAAUGGGACCCA

Variants of B1 are the subject of the series. Put plainly: self-cleavage, relative activity (ratio to wild type); higher = more cleavage; co-transcriptional.
In the case of GGCUGGCAUGGUCCCAGCCUCCUCGCUGGCGCAGGCUGGGCAACAUUCCGAGGGGACCGUCCCCUCGGUAAUGGCGAAUGGGACCCA [C4U C33A], the self-cleavage worked out at 0.0845.
Next, GGCCGGCAUGAUCCCAGCCUCCUCGCUGGCGCCGGCUGGGCAACAUUACGAGGGGACCGUCCCCUCGGUAAUGGCGAAUGGGACCCA [G11A C48A]: 0.506.
The result for GGCCGGCAUGGUCCCAGCCUCCUCGCUGGCGCAGGCUGGGGAACAUUCCGAGGGGACCGUCCCCUCGGUAAUGGCGAAUGGGACCCA [C33A C41G] reads 0.104; that for GGCCGGCAUGGUCCCAGCCUCCUCGCUGGCGCCGGCUGGGCAACAUUCCGAGGGGACCGUCCCCUCGGUAAUGCCGAAUGGGACGCA [G74C C85G], 0.0791; that for GGCCGGCAUGGUCCCAGCCUCCUCGCUGGCUCCGGCUGCGCAACAUUCCGAGGGGACCGUCCCCUCGGUAAUGGCGAAUGGGACCCA [G31U G39C], 0.166.
For GGCCGGCAUGGUCCCAGCCUCCUCGCUGGCGCCGGCUGGGCAACAUUCCGAGGGGACCGUCCCCUCGGUAAUUGAGAAUGGGACCCA [G73U C75A], the self-cleavage is 0.107.
The result for GGCCGGAAUGGUCCCAGCAUCCUCGCUGGCGCCGGCUGGGCAACAUUCCGAGGGGACCGUCCCCUCGGUAAUGGCGAAUGGGACCCA [C7A C19A] reads 0.0277; that for GGCCGGCAUGGUCCCAGCCUCCUCGCUGGCGCCGGCUGGGCAACAUUCCGAGGGGAACGUCCCCUCGGUAAUCGCGAAUGGGACCCA [C57A G73C], 0.523; that for GGCCGGCAUGGUCCCAGCCUCCUCGCUGGCGCCGGCUGGGCAACAUUCCGAGGGGACUGUCCCCGCGGUAAUGGCGAAUGGGACCCA [C58U U65G], 0.964.
Next, GGCCGGCAUGGUCCCAGCCUCCUCGCAGGCGCCGGCUGGGCAACAUUCCGAGGGGACCGUCCCCUCAGUAAUGGCGAAUGGGACCCA [U27A G67A]: 1.32.
The result for GGCCGGCAUGUUCCCAGCCUCCUCGCUGGCGCCGGCUGGGCAACAUUCCGAGGGGACCGUCCCCUCGGUAAUGGCGAAUGGGAGCCA [G11U C84G] reads 0.489; that for GGCCGGCAUGGUCCUAGCCUCCUUGCUGGCGCCGGCUGGGCAACAUUCCGAGGGGACCGUCCCCUCGGUAAUGGCGAAUGGGACCCA [C15U C24U], 0.717; that for GGCCGGCAUGGUCCCAGCCUCCUCGCUGACGCCGGCUGGGCAACAUUCCGCGGGGACCGUCCCCUCGGUAAUGGCGAAUGGGACCCA [G29A A51C], 0.121.
Turning to GGCCGGCGUGGUCCCAGCCUCCUCGCUGGCGCCGGCUGGGCAACAUUCCGAGGGGACCGUCCCCUCGGUAAGGGCGAAUGGGACCCA [A8G U72G], the self-cleavage stood at 0.536.
Next, GGCCGGCAUGGUACCAGCCUCCUCGCUGGCGCCGUCUGGGCAACAUUCCGAGGGGACCGUCCCCUCGGUAAUGGCGAAUGGGACCCA [C13A G35U]: 0.125.
The result for GGCCGGCAUGGUCCCAGCCUCCUCGCUGGCGCCGGCUGGGCAACAUUCCGAGGAGACCGUCCCCUCGGUAAUGGCGAACGGGACCCA [G54A U79C] reads 0.411; that for GGCCGGCAUGGUCCCAGCCUCCUCGCUGGCGCCGGCUGGGCAACAUUCCGGGGGGACCGUCCCCACGGUAAUGGCGAAUGGGACCCA [A51G U65A], 0.7.
Next, GGCCGGGAUGGUCCCAGCCUCCUCGCUGGCGCCGGCUGGGCAACAUUCCGAGGGGACCGUCCCCUCGGUGAUGGCGAAUGGGACCCA [C7G A70G]: 0.256; GGCCGGCAUGGUCCCAGCCUCCUCGCUGGGACCGGCUGGGCAACAUUCCGAGGGGACCGUCCCCUCGGUAAUGGCGAAUGGGACCCA [C30G G31A]: 0.133; GGCCGGCAUGGUCCCAGCCUCCUCGCUGGCGCCGUCUGGGCAACAUUCCGAGGGGACCGUCCCCUCGGUAAUGGCUAAUGGGACCCA [G35U G76U]: 0.595.
GGCCGGCGUGGUCCCAGCCUCCUCGCUGGCGCCGGCUGGGCAACAUUCCGAGGGGACCGUCCCCUCGGUAAUGGCGAACGGGACCCA [A8G U79C]: the self-cleavage is 0.256.
Next, GGCCGGCAUGGUCCCAGCCUCCUUGCUGGCGCCGGCUGGGCAACAUUUCGAGGGGACCGUCCCCUCGGUAAUGGCGAAUGGGACCCA [C24U C48U]: 0.604.
For GGCCGGCAUGGUCCUAGCCUCCUCGCUGGCGCCGGCUGCGCAACAUUCCGAGGGGACCGUCCCCUCGGUAAUGGCGAAUGGGACCCA [C15U G39C], the self-cleavage is 0.0639.
Next, GGCCGGUAUGGUCCCCGCCUCCUCGCUGGCGCCGGCUGGGCAACAUUCCGAGGGGACCGUCCCCUCGGUAAUGGCGAAUGGGACCCA [C7U A16C]: 0.196; GUCCGGCAUGGUUCCAGCCUCCUCGCUGGCGCCGGCUGGGCAACAUUCCGAGGGGACCGUCCCCUCGGUAAUGGCGAAUGGGACCCA [G2U C13U]: 0.
The result for GGCCGGCAUGGUCCCAGCCUCCUCGCUGGCGCCGGCUGGGCAACAUUGCGAGGGGACCGUCCCCUCGGUAAUGGCGAAUGGGACCGA [C48G C86G] reads 1.11; that for GGCCGGCAUGGUCCCAGCCUCCUCGCUGGCGCCGGCGGGGCAACAUUCCGAGGGGACCGUCCCCUUGGUAAUGGCGAAUGGGACCCA [U37G C66U], 0.196.
The result for GGCCGGCAUUGUCCCAGCCUCCUCGCUGGCGCCGGCUGGGCAACAUUCCGAGGGGACCGUCCCCUCGGUAAUGGCGCAUGGGACCCA [G10U A77C] reads 0.0396; that for GGCCGGCAUGGUCCCAGCCUCCUCGCUGGCGCCGGGUGGGCAACAUUCCGAGGGGAUCGUCCCCUCGGUAAUGGCGAAUGGGACCCA [C36G C57U], 0.128.
Regarding GGCCGUCAUGGUCCCAGCCUCCUCGCUGGCGCCGGCUGGGCAACAUUCCGAGGGGACCGUCCCCCCGGUAAUGGCGAAUGGGACCCA [G6U U65C], the self-cleavage amounted to 0.289.
Take GGCCGGCAUGGUCCCAGACUCCUCGCUGGCGCCGGCUGGGCAACAUUCCGAGGGGACCGUGCCCUCGGUAAUGGCGAAUGGGACCCA [C18A C61G]: the self-cleavage turned out to be 0.172.
Turning to GGCCGGCAUGGUCCCAGCCUCCUCGCUGGCGCCGGCUGGGCUACAUUCCGAGGGGACCGUCCCCUCGGUAAUGGCGAAUGGGACGCA [A42U C85G], the self-cleavage was 0.332.
The result for GGCCGGCAUGGUCCCAGCCUCCUCGCUGGCGCCGGCUGGGCAACAUUCCGAGGGGACCGUCCCCGCGGUAAUGGAGAAUGGGACCCA [U65G C75A] reads 0.259; that for GGCCGGCAUGGUCCCAGCCUCCUCGCUGGCGCCGGCUGGGCAACAUUCCGAGGUGACCGGCCCCUCGGUAAUGGCGAAUGGGACCCA [G54U U60G], 0.989.
The result for GACCGGCAUGGUCCCAGCCUCCUCGCUGGCGCCGGCUGGGCAACAUUCCGAGGGGACCGUCCCCUCGGUAAUGGCGAAUGGGACCAA [G2A C86A] reads 0.172.
Next, GGCCGGCAUGGUCCCAGCCUCCUCUCUGGCGCCGGCUGGGCAACAUUCCGAGGGGACCGUCCCCUCGGUAAUGGCGAAUCGGACCCA [G25U G80C]: 0.0733; GGCCGGCAUGGUCCCAGCCUCCUCGCUGGCGCCGACUGGACAACAUUCCGAGGGGACCGUCCCCUCGGUAAUGGCGAAUGGGACCCA [G35A G40A]: 0.346; UGCCGGCAUGGUCCCAGCCUCCUCGCUGGCGCAGGCUGGGCAACAUUCCGAGGGGACCGUCCCCUCGGUAAUGGCGAAUGGGACCCA [G1U C33A]: 0.295.
Regarding GGCCGGCAUGGUACCAGCCUCCUCGCUGGCGCCGGCUGGGCAACAUUCCGAGGGGACCGUCCCCUCGGUAAUGGCGAAAGGGACCCA [C13A U79A], the self-cleavage was 0.119.
Next, GGCCGGAAUGGUCCCAGCCUCCUCGCUGGCGCCGGCUGGGCAACAUUCCUAGGGGACCGUCCCCUCGGUAAUGGCGAAUGGGACCCA [C7A G50U]: 0.475; GGCCGGCAUGGUCCCAGCCUCCUCGCUGGCGCCGGCUGGGCAACAUUCCGAUGGGACCUUCCCCUCGGUAAUGGCGAAUGGGACCCA [G52U G59U]: 0.984; GUCCGGCAUGGUCCCAGCCUCCUCGCGGGCGCCGGCUGGGCAACAUUCCGAGGGGACCGUCCCCUCGGUAAUGGCGAAUGGGACCCA [G2U U27G]: 0.0791.
Next, GGCCGGCAUGGUGCCAGCCUCCUCGCUGGCGCCGGCUGGGCAACAUUCCGAGGGGACCGUCCCCACGGUAAUGGCGAAUGGGACCCA [C13G U65A]: 0.101; GGCCGGCAUGGUCCCAGCCUCCUCGCCGGCGCCGGCUGGGCAACAUUCCGAGGGGACCGUCCCCUCGGUAAUGUCGAAUGGGACCCA [U27C G74U]: 0.332.
Next, GGCCGGCAUGGUCCCAGCCUCCUCGCUGGCGCUGGCUGGGCAACAUUCCGAGGGGACCGUCCCCUCGGUAAUGGCGAAUGAGACCCA [C33U G81A]: 0.285.
With GGCCGGAAUGGUCCCAGCCUCCUCGCUGGCGCCGGCUGGUCAACAUUCCGAGGGGACCGUCCCCUCGGUAAUGGCGAAUGGGACCCA [C7A G40U], the self-cleavage was found to be 0.295.
GGCCGGCAUGGUCCCAGCCUCCUCGCUGGCGCCGGCUGGGCAACAUUCCAAGGGGACCGACCCCUCGGUAAUGGCGAAUGGGACCCA [G50A U60A]: the self-cleavage is 0.776.
Next, GGCCGGCAUGGUCCCAGCCUCCUCGCUGGCGCCGGCUGGGCAACAUUCCGAGGGGACCGUCCCAUCGGUAAUGGUGAAUGGGACCCA [C64A C75U]: 0.332; GGCCGGCAUGGUCCCAGCCUCCUCGCUGGCGCCGGCAGGGCAACUUUCCGAGGGGACCGUCCCCUCGGUAAUGGCGAAUGGGACCCA [U37A A45U]: 0.175; GGCCGGCAUGGUCCCAGCCUCCUAGCUGGCGCCGGCUGGGCAACAUUCCGAGGGGACCGUCCCCUCGGUAAUGGCGAAUGGGACCUA [C24A C86U]: 0.633.
Regarding GGCCGGCAUGGUCCCAGCCUCCUCGCUGGCGCCGGCUGGGCAACAUUCCGAGGGGGCCGUCCCCUCGUUAAUGGCGAAUGGGACCCA [A56G G68U], the self-cleavage was determined as 1.18.
Turning to GGCCGGCAUGGUCCCAGCCUCCUCGCUGGCGCCGGCUGGGCAACAUUCCGGGGGGACCGUCCCCUCGGUAAUGGCGAAUGGAACCCA [A51G G82A], the self-cleavage came to 0.125.
The result for GGCCGGCAUGGUCCCAGCCUCCGCGCUGGCGCCGGCUGGGCAACAUUCCGAGGGGACCGUCCCCUCGGUAAUGGCGAAUAGGACCCA [U23G G80A] reads 0.134.
GGCCGGCAUGGUCCCAGCCUCCUCGGUGGCGCCGGCUGGGCAACAUUCCGAGGGGACCGUCCCCUCGGUAAUGGCGAAUGGGUCCCA [C26G A83U]: the self-cleavage worked out at 0.917.
Next, GCCCGGCAUGGUCCCAGCCUCCUCGCUGGCGCCGGCUGGGCAACAUUCCGAGGGGACCGUCCCCUCCGUAAUGGCGAAUGGGACCCA [G2C G67C]: 0.113.
The result for GGCCGAGAUGGUCCCAGCCUCCUCGCUGGCGCCGGCUGGGCAACAUUCCGAGGGGACCGUCCCCUCGGUAAUGGCGAAUGGGACCCA [G6A C7G] reads 0.208; that for GGCCGGCAUGGUCCCAGCCUCCUCGCUGGCGCCGGCUGGGCAGCAUUCCGAGGGGACCGUCCCAUCGGUAAUGGCGAAUGGGACCCA [A43G C64A], 0.612; that for GGCCGGCAUGAUCCCAGCCUCCUCGCUGGCGCCGGCUGGGCAACAUUCCGAGGGGACCGUCCCCUCGGCAAUGGCGAAUGGGACCCA [G11A U69C], 0.324.
GGCCGGCAUGCUCCCAGCCUCCUCGCUGGCGCCGGCUGGGCAACAUUCCGAGGGGACCGUCCCCUGGGUAAUGGCGAAUGGGACCCA [G11C C66G]: the self-cleavage is 0.383.
The result for GGCCGGCUUGGUCCCAGCCUCCUCGCUGGCGCCGGCUGGGCAACAUUCCGAGGGGACCGUCCGCUCGGUAAUGGCGAAUGGGACCCA [A8U C63G] reads 0.646.
With GGCCCGCAUGGUCCCAGCCUCCUCGCUGGCGCCGGCUGGGCAACAUUCCGAGGGGACCGUCCCCUCGGUAAUGGCGAUUGGGACCCA [G5C A78U], the self-cleavage stood at 0.0755.
For the variant GGCCGGCAUGGUCCCAGCCUCCUCGCUGGCGCCGGCUGGGCAACAUUCCGAGGGGACCGUCUCCUCGGUAAUGGCGGAUGGGACCCA [C62U A77G], the self-cleavage was 0.831.
The result for GGCCGGCAUGGUCCCAGCCUCCUCGCUGGCGCCGGCUGGGCAAAAUUCCGAGGGGACCGUCCCCUCGGUAAGGGCGAAUGGGACCCA [C44A U72G] reads 0.431; that for GGCCGGCAUGGUCCCAGCCUCCACGCUGGCGCCGGCUGGGCAACAUUCCGAGGGGUCCGUCCCCUCGGUAAUGGCGAAUGGGACCCA [U23A A56U], 1.08.
